Reference: PMC2975895

Key:
[1] = biological target: AxxA-SurR (SurR C23A C26A variant) (Pyrococcus furiosus); assay: crystal structure
[2] = biological target: AxxA-SurR (SurR C23A C26A variant) (Pyrococcus furiosus); assay: SEC
[3] = biological target: SurR oxidized with diamide or colloidal S^0 (Pyrococcus furiosus); assay: SEC

stoichiometry N [1] | stoichiometry N [2] | stoichiometry N [3] | Substance
2 | 2 |  | AxxA-SurR (SurR C23A C26A variant) (natural protein)
 |  | 2 | SurR oxidized with diamide or colloidal S^0 (natural protein)
